Laboratory results from publication PMC3954597 (Biochemistry, 2014).
Substitutions are numbered along the chain they refer to. Read-outs that look alike come from different tables or passages of the source. Square brackets hold non-standard residues; d marks the D form. pY = N[C@@H](Cc1ccc(OP(=O)(O)O)cc1)C(=O)O

Assays:
[1] = system: HePTP; settings: cited from earlier work
[2] = molecular target: T1, TCPTP (Homo sapiens, UniProt P17706); experiment: PTP assay, TCPTP; type: biochemical; settings: catalytic domain; 100 mM HEPES pH 7.4; monitored at 282 nm
T1 sequence (P17706 1-314): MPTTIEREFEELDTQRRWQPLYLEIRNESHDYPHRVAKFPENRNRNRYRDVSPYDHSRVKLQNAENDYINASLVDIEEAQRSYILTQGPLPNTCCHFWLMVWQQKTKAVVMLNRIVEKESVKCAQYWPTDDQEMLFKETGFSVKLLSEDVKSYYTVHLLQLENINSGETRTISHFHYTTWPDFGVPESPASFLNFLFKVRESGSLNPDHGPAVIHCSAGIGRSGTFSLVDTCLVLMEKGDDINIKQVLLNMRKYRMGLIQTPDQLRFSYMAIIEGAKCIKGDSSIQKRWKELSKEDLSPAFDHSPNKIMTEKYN

[3] = molecular target: SHP-1 (Homo sapiens, UniProt P29350); settings: catalytic domain; cited from earlier work
[4] = molecular target: T2, SHP-2 (Homo sapiens, UniProt Q06124); settings: catalytic domain; cited from earlier work
T2 sequence (Q06124 199-593): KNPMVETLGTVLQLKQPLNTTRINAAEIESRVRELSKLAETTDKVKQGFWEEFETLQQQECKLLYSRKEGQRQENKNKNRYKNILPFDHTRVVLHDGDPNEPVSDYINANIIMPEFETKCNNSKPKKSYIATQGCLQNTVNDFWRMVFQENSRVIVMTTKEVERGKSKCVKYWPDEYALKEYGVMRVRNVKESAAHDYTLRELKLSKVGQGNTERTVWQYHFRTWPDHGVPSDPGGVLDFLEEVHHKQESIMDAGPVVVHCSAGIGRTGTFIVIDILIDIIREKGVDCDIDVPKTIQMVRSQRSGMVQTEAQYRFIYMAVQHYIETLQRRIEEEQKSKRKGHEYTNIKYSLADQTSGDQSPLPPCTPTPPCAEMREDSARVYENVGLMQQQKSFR

[5] = molecular target: T3, HePTP (aa 22-335), GST fusion (human) (UniProt P35236)
T3 sequence: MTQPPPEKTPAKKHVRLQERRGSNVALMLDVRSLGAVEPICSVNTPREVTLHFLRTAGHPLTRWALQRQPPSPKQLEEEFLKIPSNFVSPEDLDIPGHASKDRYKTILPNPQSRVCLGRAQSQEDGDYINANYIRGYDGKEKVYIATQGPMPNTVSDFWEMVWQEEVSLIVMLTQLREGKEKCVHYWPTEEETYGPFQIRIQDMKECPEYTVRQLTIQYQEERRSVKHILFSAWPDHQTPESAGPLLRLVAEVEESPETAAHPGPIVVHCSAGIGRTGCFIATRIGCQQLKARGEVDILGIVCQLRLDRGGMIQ

[6] = molecular target: T4, PTP-PEST catalytic domain (aa 5-300), GST fusion (human) (UniProt Q05209)
T4 sequence: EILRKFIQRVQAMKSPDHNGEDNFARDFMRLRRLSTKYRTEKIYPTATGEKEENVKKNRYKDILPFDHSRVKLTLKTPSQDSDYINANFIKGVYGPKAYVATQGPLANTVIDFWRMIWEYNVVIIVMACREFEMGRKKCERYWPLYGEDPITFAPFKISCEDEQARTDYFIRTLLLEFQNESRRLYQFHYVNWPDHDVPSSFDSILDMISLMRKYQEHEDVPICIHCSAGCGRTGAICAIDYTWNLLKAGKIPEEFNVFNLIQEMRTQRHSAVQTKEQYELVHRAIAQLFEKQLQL

[7] = molecular target: T5, R47E PTP1B catalytic domain (amino acids 1-321) (human) (UniProt P18031)
T5 sequence: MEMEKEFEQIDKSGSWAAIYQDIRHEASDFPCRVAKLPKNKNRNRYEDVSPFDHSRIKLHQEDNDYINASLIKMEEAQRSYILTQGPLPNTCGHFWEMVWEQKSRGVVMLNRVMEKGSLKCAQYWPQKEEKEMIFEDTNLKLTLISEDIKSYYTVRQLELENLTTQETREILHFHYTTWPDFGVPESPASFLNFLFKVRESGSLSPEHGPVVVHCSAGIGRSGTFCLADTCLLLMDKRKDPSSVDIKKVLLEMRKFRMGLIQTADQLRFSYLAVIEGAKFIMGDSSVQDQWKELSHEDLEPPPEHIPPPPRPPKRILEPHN

[8] = molecular target: T6, wild-type PTP1B catalytic domain (amino acids 1-321) (human) (UniProt P18031)
T6 sequence: T5 sequence with E47R

[9] = molecular target: T7, R24M PTP1B catalytic domain (amino acids 1-321) (human) (UniProt P18031)
T7 sequence: T5 sequence with R24M, E47R

[10] = molecular target: T6, wild-type PTP1B catalytic domain (amino acids 1-321) (human); remark: listed apart in the source

SHP-1, sequence (P29350 205-595): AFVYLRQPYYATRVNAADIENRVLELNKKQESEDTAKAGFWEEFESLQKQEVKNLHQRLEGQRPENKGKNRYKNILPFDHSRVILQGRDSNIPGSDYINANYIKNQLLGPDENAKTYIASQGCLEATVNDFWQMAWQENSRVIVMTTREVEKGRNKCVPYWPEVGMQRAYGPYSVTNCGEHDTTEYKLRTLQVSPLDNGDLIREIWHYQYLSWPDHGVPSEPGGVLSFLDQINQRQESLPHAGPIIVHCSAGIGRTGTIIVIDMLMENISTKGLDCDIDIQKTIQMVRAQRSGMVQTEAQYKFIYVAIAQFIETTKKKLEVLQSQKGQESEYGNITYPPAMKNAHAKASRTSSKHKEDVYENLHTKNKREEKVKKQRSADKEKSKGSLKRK

## DHTGFLpTEpY^187VATRW [reference compound]
[1]
  kcat/KM: 4800 M⁻¹ s⁻¹

## WDEDFpYDWEF
[2]
  Km: 0.31 ± 0.01 µM
  kcat: 9.0 ± 0.4 s⁻¹
  kcat/KM x10^6: 29 x10^6 M^−1 s^−1
[3]
  Km: 3.2 ± 0.3 µM
  kcat: 75 ± 2 ^c s^−1
  kcat/KM x10^6: 23 ^c x10^6 M^−1 s^−1
[4]
  Km: 6.3 ± 0.4 µM
  kcat: 43 ± 1 ^c s^−1
  kcat/KM x10^6: 6.8 ^c x10^6 M^−1 s^−1

## phospho-ERK2 protein: phosphorylated ERK2 protein, HePTP substrate recruited via KIM domain
[1]
  rate of dephosphorylation at the same site (pY187): 2.6 × 10^6 M^−1 s^−1

B1: Ac-YDEDFpYDYEF-NH2 (acidic) (peptide)
peptide: Ac-YDEDF[pY]DYEF-NH2
SMILES: CC(=O)N[C@@H](Cc1ccc(O)cc1)C(=O)N[C@@H](CC(=O)O)C(=O)N[C@@H](CCC(=O)O)C(=O)N[C@@H](CC(=O)O)C(=O)N[C@@H](Cc1ccccc1)C(=O)N[C@@H](Cc1ccc(OP(=O)(O)O)cc1)C(=O)N[C@@H](CC(=O)O)C(=O)N[C@@H](Cc1ccc(O)cc1)C(=O)N[C@@H](CCC(=O)O)C(=O)N[C@@H](Cc1ccccc1)C(N)=O
[5]
  KM, steady-state dephosphorylation of the pY peptide: 280 µM
[6]
  KM, steady-state dephosphorylation of the pY peptide: 2.2 µM

B2: Ac-ASSDEpYAA-NH2 (peptide)
peptide: Ac-ASSDE[pY]AA-NH2
SMILES: CC(=O)N[C@@H](C)C(=O)N[C@@H](CO)C(=O)N[C@@H](CO)C(=O)N[C@@H](CC(=O)O)C(=O)N[C@@H](CCC(=O)O)C(=O)N[C@@H](Cc1ccc(OP(=O)(O)O)cc1)C(=O)N[C@@H](C)C(=O)N[C@@H](C)C(N)=O
[7]
  KM, steady-state dephosphorylation of the pY peptide: 32 µM
[8]
  KM, steady-state dephosphorylation of the pY peptide: 1.8 µM
[9]
  KM, steady-state dephosphorylation of the pY peptide: 3.8 µM
[10]
  KM, steady-state dephosphorylation of the pY peptide: 1.9 µM

B3: Ac-AApYAAADD-NH2 (peptide)
peptide: Ac-AA[pY]AAADD-NH2
SMILES: CC(=O)N[C@@H](C)C(=O)N[C@@H](C)C(=O)N[C@@H](Cc1ccc(OP(=O)(O)O)cc1)C(=O)N[C@@H](C)C(=O)N[C@@H](C)C(=O)N[C@@H](C)C(=O)N[C@@H](CC(=O)O)C(=O)N[C@@H](CC(=O)O)C(N)=O
[7]
  KM, steady-state dephosphorylation of the pY peptide: 10 µM
[8]
  KM, steady-state dephosphorylation of the pY peptide: 3 µM
[9]
  KM, steady-state dephosphorylation of the pY peptide: 8.7 µM

B4: Ac-SASASpYSASA-NH2 (neutral) (peptide)
peptide: Ac-SASAS[pY]SASA-NH2
SMILES: CC(=O)N[C@@H](CO)C(=O)N[C@@H](C)C(=O)N[C@@H](CO)C(=O)N[C@@H](C)C(=O)N[C@@H](CO)C(=O)N[C@@H](Cc1ccc(OP(=O)(O)O)cc1)C(=O)N[C@@H](CO)C(=O)N[C@@H](C)C(=O)N[C@@H](CO)C(=O)N[C@@H](C)C(N)=O
[6]
  KM, steady-state dephosphorylation of the pY peptide: 800 µM

B5: Ac-AApYADDAA-NH2 (peptide)
peptide: Ac-AA[pY]ADDAA-NH2
SMILES: CC(=O)N[C@@H](C)C(=O)N[C@@H](C)C(=O)N[C@@H](Cc1ccc(OP(=O)(O)O)cc1)C(=O)N[C@@H](C)C(=O)N[C@@H](CC(=O)O)C(=O)N[C@@H](CC(=O)O)C(=O)N[C@@H](C)C(=O)N[C@@H](C)C(N)=O
[7]
  KM, steady-state dephosphorylation of the pY peptide: 12 µM
[8]
  KM, steady-state dephosphorylation of the pY peptide: 2.2 µM
[9]
  KM, steady-state dephosphorylation of the pY peptide: 6.4 µM

B6: Ac-AApYDDIDE-NH2 (peptide)
peptide: Ac-AA[pY]DDIDE-NH2
SMILES: CC[C@H](C)[C@H](NC(=O)[C@H](CC(=O)O)NC(=O)[C@H](CC(=O)O)NC(=O)[C@H](Cc1ccc(OP(=O)(O)O)cc1)NC(=O)[C@H](C)NC(=O)[C@H](C)NC(C)=O)C(=O)N[C@@H](CC(=O)O)C(=O)N[C@@H](CCC(=O)O)C(N)=O
[7]
  KM, steady-state dephosphorylation of the pY peptide: 56 µM
[8]
  KM, steady-state dephosphorylation of the pY peptide: 3.5 µM
[9]
  KM, steady-state dephosphorylation of the pY peptide: 37 µM

B7: Ac-YRKRFpYRYKF-NH2 (basic) (peptide)
peptide: Ac-YRKRF[pY]RYKF-NH2
SMILES: CC(=O)N[C@@H](Cc1ccc(O)cc1)C(=O)N[C@@H](CCCNC(=N)N)C(=O)N[C@@H](CCCCN)C(=O)N[C@@H](CCCNC(=N)N)C(=O)N[C@@H](Cc1ccccc1)C(=O)N[C@@H](Cc1ccc(OP(=O)(O)O)cc1)C(=O)N[C@@H](CCCNC(=N)N)C(=O)N[C@@H](Cc1ccc(O)cc1)C(=O)N[C@@H](CCCCN)C(=O)N[C@@H](Cc1ccccc1)C(N)=O
[6]
  kcat/KM, steady-state dephosphorylation of the pY peptide (KM not given): 1500 M⁻¹ s⁻¹

B8: nephrin pY1217 peptide Ac-DPRGIpYDQVAG-NH2 (peptide)
peptide: Ac-DPRGI[pY]DQVAG-NH2
SMILES: CC[C@H](C)[C@H](NC(=O)CNC(=O)[C@H](CCCNC(=N)N)NC(=O)[C@@H]1CCCN1C(=O)[C@H](CC(=O)O)NC(C)=O)C(=O)N[C@@H](Cc1ccc(OP(=O)(O)O)cc1)C(=O)N[C@@H](CC(=O)O)C(=O)N[C@@H](CCC(N)=O)C(=O)N[C@H](C(=O)N[C@@H](C)C(=O)NCC(N)=O)C(C)C
[7]
  KM, steady-state dephosphorylation of the pY peptide: 23 µM
[8]
  KM, steady-state dephosphorylation of the pY peptide: 7.1 µM
[9]
  KM, steady-state dephosphorylation of the pY peptide: 71 µM

B9: Ac-AApYAADDA-NH2 (peptide)
peptide: Ac-AA[pY]AADDA-NH2
SMILES: CC(=O)N[C@@H](C)C(=O)N[C@@H](C)C(=O)N[C@@H](Cc1ccc(OP(=O)(O)O)cc1)C(=O)N[C@@H](C)C(=O)N[C@@H](C)C(=O)N[C@@H](CC(=O)O)C(=O)N[C@@H](CC(=O)O)C(=O)N[C@@H](C)C(N)=O
[7]
  KM, steady-state dephosphorylation of the pY peptide: 11 µM
[8]
  KM, steady-state dephosphorylation of the pY peptide: 2.6 µM
[9]
  KM, steady-state dephosphorylation of the pY peptide: 6.9 µM

B10: Ac-EEDNAWpYAA-NH2 (peptide)
peptide: Ac-EEDNAW[pY]AA-NH2
SMILES: CC(=O)N[C@@H](CCC(=O)O)C(=O)N[C@@H](CCC(=O)O)C(=O)N[C@@H](CC(=O)O)C(=O)N[C@@H](CC(N)=O)C(=O)N[C@@H](C)C(=O)N[C@@H](Cc1c[nH]c2ccccc12)C(=O)N[C@@H](Cc1ccc(OP(=O)(O)O)cc1)C(=O)N[C@@H](C)C(=O)N[C@@H](C)C(N)=O
[7]
  KM, steady-state dephosphorylation of the pY peptide: 9.5 µM
[8]
  KM, steady-state dephosphorylation of the pY peptide: 1.3 µM
[9]
  KM, steady-state dephosphorylation of the pY peptide: 1.9 µM
